Several values for one entry are separate records, joined by “and”; a condition that tells them apart may be missing. Equal entries are not always repeated.
Key:
[1] = tested on: OLE1 deficient yeast strain L8-14C; format: cell-based, Saccharomyces cerevisiae; details: galactose minimal medium without unsaturated fatty acids, plus grades not defined
[2] = molecular target: T1, mSCD1 (Mus musculus, UniProt P13516); assay: Conversion of [14C]-18:0-CoA to [14C]-18:1-CoA by reconstituted complexes of recombinant mSCD1 with cyt b5 and cyt b5 reductase; format: biochemical
T1 construct: 6xHis (from pYES-DEST52) (C); made in house; host or cells: mSCD1: Saccharomyces cerevisiae (OLE1-deficient strain L8-14C), used as microsomes; cyt b5 and cyt b5 reductase: Escherichia coli
T1 sequence (P13516 1-355): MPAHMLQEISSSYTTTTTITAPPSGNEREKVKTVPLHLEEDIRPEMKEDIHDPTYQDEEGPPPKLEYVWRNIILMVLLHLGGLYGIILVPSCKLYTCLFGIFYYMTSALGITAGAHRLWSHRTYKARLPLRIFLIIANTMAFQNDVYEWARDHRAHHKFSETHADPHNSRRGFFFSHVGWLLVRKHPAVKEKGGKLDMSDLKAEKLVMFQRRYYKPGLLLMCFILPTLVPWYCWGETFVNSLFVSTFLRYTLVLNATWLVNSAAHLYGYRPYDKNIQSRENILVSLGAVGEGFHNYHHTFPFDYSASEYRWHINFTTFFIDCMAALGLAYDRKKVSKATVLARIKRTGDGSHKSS

[3] = tested on: transgenic L8-14C; assay: Fatty acid profile of transgenic L8-14C expressing human SCD constructs; format: cell-based, Saccharomyces cerevisiae; details: for 16:0 / 16:1 / 18:0 / 18:1: percentage of total C16 and C18 fatty acids detected

B1: mSCD4: mouse stearoyl-CoA desaturase isoform 4, cloned from heart, expressed in yeast (protein, UniProt Q6T707 1-353, looked up)
Stearoyl-CoA desaturase 4: MTAHLPQEISSRCSTTNIMEPHSRRQQDGEEKMPLQAEDIRPEIKDDLYDPSYQDEEGPPPKLEYVWRNIIFMALLHVGALYGITLVPSCKVYTWLLGVFYNVVAGLGITAGAHRLWSHRTYKARLPLRIFLIMANTMAFQNDVYEWARDHRAHHKFSETHADPHNSRRGFFFSHVGWLLVRKHPAVKEKGKNLDMSDLKAEKLVMFQRRYYKLAVTLMFIILPTLVPWYLWGETFQHSLCVSNFLRYAVLLNFTWLVNSAAHLYGYRPYDRGIGARENPFVSMASLGEGFHNYHHTFPYDYSVSEYRWHINFTTFFIDCMAALGLAYDRKKVSKAVVLARIKRTGDGSHKSS
In vivo activity [1]: Not active

B2: mSCD1 only: recombinant mSCD1 prepared as yeast microsomes, no exogenous cyt b5 or reductase (protein, UniProt P13516 1-355, looked up)
Acyl-CoA desaturase 1: MPAHMLQEISSSYTTTTTITAPPSGNEREKVKTVPLHLEEDIRPEMKEDIHDPTYQDEEGPPPKLEYVWRNIILMVLLHLGGLYGIILVPSCKLYTCLFGIFYYMTSALGITAGAHRLWSHRTYKARLPLRIFLIIANTMAFQNDVYEWARDHRAHHKFSETHADPHNSRRGFFFSHVGWLLVRKHPAVKEKGGKLDMSDLKAEKLVMFQRRYYKPGLLLMCFILPTLVPWYCWGETFVNSLFVSTFLRYTLVLNATWLVNSAAHLYGYRPYDKNIQSRENILVSLGAVGEGFHNYHHTFPFDYSASEYRWHINFTTFFIDCMAALGLAYDRKKVSKATVLARIKRTGDGSHKSS
modifications: yeast microsomes
notes: recombinant mSCD1 prepared as yeast microsomes, no exogenous cyt b5 or reductase
% conversion ([2]; 18:0-CoA to 18:1-CoA, single trial of duplicate): 5.40% and 5.55%
Correction by subtraction of background ([2]; average conversion minus background): 3.47%
average conversion ([2]; mean of duplicate trials): 5.48%
cpm 18:1-CoA ([2]; single trial of duplicate): 1626 cpm and 1743 cpm
total cpm ([2]; single trial of duplicate): 30,094 cpm and 31,416 cpm
cpm 18:0-CoA ([2]; single trial of duplicate, mSCD1 yeast microsomes, cyt b5 and cyt b5 reductase from E. coli): 28,468 cpm and 29,673 cpm

B3: hSCD5-wt: human SCD5 wild-type construct expressed in yeast L8-14C (protein, UniProt Q86SK9 1-330, looked up)
Stearoyl-CoA desaturase 5: MPGPATDAGKIPFCDAKEEIRAGLESSEGGGGPERPGARGQRQNIVWRNVVLMSLLHLGAVYSLVLIPKAKPLTLLWAYFCFLLAALGVTAGAHRLWSHRSYRAKLPLRIFLAVANSMAFQNDIFEWSRDHRAHHKYSETDADPHNARRGFFFSHIGWLFVRKHRDVIEKGRKLDVTDLLADPVVRIQRKYYKISVVLMCFVVPTLVPWYIWGESLWNSYFLASILRYTISLNISWLVNSAAHMYGNRPYDKHISPRQNPLVALGAIGEGFHNYHHTFPFDYSASEFGLNFNPTTWFIDFMCWLGLATDRKRATKPMIEARKARTGDSSA
Ratio 18:1/16:1 [3]: 3.39
16:0 [3]: 45.032 percentage
16:1 [3]: 8.90 percentage
18:0 [3]: 7.73 percentage
18:1 [3]: 30.20 percentage

B4: hSCD5-6xH: human SCD5 construct with 6xHis tag expressed in yeast L8-14C (protein, UniProt Q86SK9 1-330, looked up)
Stearoyl-CoA desaturase 5: MPGPATDAGKIPFCDAKEEIRAGLESSEGGGGPERPGARGQRQNIVWRNVVLMSLLHLGAVYSLVLIPKAKPLTLLWAYFCFLLAALGVTAGAHRLWSHRSYRAKLPLRIFLAVANSMAFQNDIFEWSRDHRAHHKYSETDADPHNARRGFFFSHIGWLFVRKHRDVIEKGRKLDVTDLLADPVVRIQRKYYKISVVLMCFVVPTLVPWYIWGESLWNSYFLASILRYTISLNISWLVNSAAHMYGNRPYDKHISPRQNPLVALGAIGEGFHNYHHTFPFDYSASEFGLNFNPTTWFIDFMCWLGLATDRKRATKPMIEARKARTGDSSA
modifications: C-terminal 6xHis tag
notes: human SCD5 construct with 6xHis tag expressed in yeast L8-14C
Ratio 18:1/16:1 [3]: 3.73
16:0 [3]: 56.64 percentage
16:1 [3]: 6.70 percentage
18:0 [3]: 10.79 percentage
18:1 [3]: 25.70 percentage

B5: hSCD1-wt: human SCD1 wild-type construct expressed in yeast L8-14C (protein, UniProt O00767 1-359, looked up)
Stearoyl-CoA desaturase: MPAHLLQDDISSSYTTTTTITAPPSRVLQNGGDKLETMPLYLEDDIRPDIKDDIYDPTYKDKEGPSPKVEYVWRNIILMSLLHLGALYGITLIPTCKFYTWLWGVFYYFVSALGITAGAHRLWSHRSYKARLPLRLFLIIANTMAFQNDVYEWARDHRAHHKFSETHADPHNSRRGFFFSHVGWLLVRKHPAVKEKGSTLDLSDLEAEKLVMFQRRYYKPGLLMMCFILPTLVPWYFWGETFQNSVFVATFLRYAVVLNATWLVNSAAHLFGYRPYDKNISPRENILVSLGAVGEGFHNYHHSFPYDYSASEYRWHINFTTFFIDCMAALGLAYDRKKVSKAAILARIKRTGDGNYKSG
Ratio 18:1/16:1 [3]: 0.63
16:0 [3]: 61.87 percentage
16:1 [3]: 23.22 percentage
18:0 [3]: 9.40 percentage
18:1 [3]: 14.65 percentage

Source: patent US20080182249A1, “Expression systems for mammalian and mycobacterial desaturases” (priority 2006, published 2008)
